This note sets out measurements from patent US12662524B2.

Substrate in test [1]: CP C3-convertase (C4b2a) (Homo sapiens (Human)) (UniProt P0C0L4)
Test [2] deals with AP C3-convertase (C3bBb) (Homo sapiens (Human)) (UniProt P01024).
For test [3], the target named is C4b (Homo sapiens (Human)) (UniProt P0C0L4).
Test [4] addresses C3b (Homo sapiens (Human)) (UniProt P01024).

Where “and” joins values, the source holds several entries; their conditions need not be identical. Equal entries are not always repeated. Where only a bound is given, the exact number is not on record here.

Sequence of C4b (Homo sapiens (Human)) (P0C0L4 757-1446 limits assumed, chain 1 of 2): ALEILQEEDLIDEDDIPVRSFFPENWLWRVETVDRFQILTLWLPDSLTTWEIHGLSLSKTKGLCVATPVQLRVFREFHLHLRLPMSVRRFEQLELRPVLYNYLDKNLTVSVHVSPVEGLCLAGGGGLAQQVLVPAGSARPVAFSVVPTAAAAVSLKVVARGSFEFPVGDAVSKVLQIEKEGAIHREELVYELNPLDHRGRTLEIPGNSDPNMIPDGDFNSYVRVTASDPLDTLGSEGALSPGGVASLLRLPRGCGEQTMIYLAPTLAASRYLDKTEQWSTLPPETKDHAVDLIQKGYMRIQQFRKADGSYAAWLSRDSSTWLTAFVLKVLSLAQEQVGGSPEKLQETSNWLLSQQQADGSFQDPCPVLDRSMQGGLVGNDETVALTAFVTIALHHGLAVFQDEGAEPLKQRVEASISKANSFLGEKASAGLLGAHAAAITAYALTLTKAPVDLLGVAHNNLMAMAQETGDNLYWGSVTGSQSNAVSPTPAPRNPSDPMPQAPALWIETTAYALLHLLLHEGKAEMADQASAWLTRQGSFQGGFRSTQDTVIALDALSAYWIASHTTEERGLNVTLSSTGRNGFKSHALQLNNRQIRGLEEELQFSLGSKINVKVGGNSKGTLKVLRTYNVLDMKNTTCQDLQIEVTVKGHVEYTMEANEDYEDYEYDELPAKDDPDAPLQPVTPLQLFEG
Sequence of C4b (Homo sapiens (Human)) (P0C0L4 20-675 limits assumed, chain 2 of 2): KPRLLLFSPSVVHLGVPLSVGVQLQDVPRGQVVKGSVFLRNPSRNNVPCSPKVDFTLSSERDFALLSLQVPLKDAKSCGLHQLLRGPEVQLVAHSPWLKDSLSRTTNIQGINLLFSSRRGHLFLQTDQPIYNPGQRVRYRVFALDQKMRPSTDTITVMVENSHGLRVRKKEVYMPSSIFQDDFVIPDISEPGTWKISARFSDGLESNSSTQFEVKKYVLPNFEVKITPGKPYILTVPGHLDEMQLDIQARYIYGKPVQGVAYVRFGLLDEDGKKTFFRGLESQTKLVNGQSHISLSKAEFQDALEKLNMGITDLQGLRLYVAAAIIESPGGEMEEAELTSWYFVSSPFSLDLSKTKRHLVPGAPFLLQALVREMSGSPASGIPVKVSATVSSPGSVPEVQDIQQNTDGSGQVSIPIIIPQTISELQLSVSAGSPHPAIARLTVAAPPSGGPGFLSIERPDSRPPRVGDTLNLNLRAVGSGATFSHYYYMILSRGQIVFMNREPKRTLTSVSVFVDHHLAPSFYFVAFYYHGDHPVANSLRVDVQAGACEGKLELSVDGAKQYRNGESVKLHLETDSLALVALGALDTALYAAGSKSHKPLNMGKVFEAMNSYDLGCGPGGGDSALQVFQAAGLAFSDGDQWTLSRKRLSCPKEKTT

B1: D2D3 (protein)
chain: CEVPTRLNSASLKQPYITQNYFPVGTVVEYECRPGYRREPSLSPKLTCLQNLKWSTAVEFCKKKSCPNPGEIRNGQIDVPGGILFGATISFSCNTGYKLFGSTSSFCLISGSSVQWSDPLPECREIY
Consider B1, for which the CP-DAA IC50 in test [1] came to 10.9 nM. The molecule further returned an AP-DAA IC50 in test [2] above 10 nM.

B2: decay-accelerating factor (DAF; CD55) (protein)
chain: CGLPPDVPNAQPALEGRTSFPEDTVITYKCEESFVKIPGEKDSVICLKGSQWSDIEEFCNRSCEVPTRLNSASLKQPYITQNYFPVGTVVEYECRPGYRREPSLSPKLTCLQNLKWSTAVEFCKKKSCPNPGEIRNGQIDVPGGILFGATISFSCNTGYKLFGSTSSFCLISGSSVQWSDPLPECREIYCPAPPQIDNGIIQGERDHYGYRQSVTYACNKGFTMIGEHSIYCTVNNDEGEWSGPPPECRGKS
Regarding B2, in test [1], the CP-DAA IC50 was 16.5 nM and 14.5 nM and 2.6 nM. Also, in test [2], the AP-DAA IC50 was 1.1 nM and 2.3 nM.

B3: D2D3D4M4 (protein)
chain: CEVPTRLNSASLKQPYITQNYFPVGTVVEYECRPGYRREPSLSPKLTCLQNLKWSTAVEFCKKKSCPNPGEIRNGQIDVPGGILFGATISFSCNTGYKLFGSTSSFCLISGSSVQWSDPLPECREIYCPAPPQIDNGIIQGERDHYGYRQSVTYACNKGFTMIGEHSIYCTVNNDEGEWSGPPPECRGKSCRFPVVENGKQISGFGKKFYYKATVMFECDKGFYLDGSDTIVCDSNSTWDPPVPKCLKVL
For the molecule B3, in test [1], the CP-DAA IC50 came to 5.7 nM. The molecule also registered an AP-DAA IC50 in test [2] of 5.6 nM.

B4: membrane cofactor protein (MCP; CD46) (protein)
chain: CEEPPTFEAMELIGKPKPYYEIGERVDYKCKKGYFYIPPLATHTICDRNHTWLPVSDDACYRETCPYIRDPLNGQAVPANGTYEFGYQMHFICNEGYYLIGEEILYCELKGSVAIWSGKPPICEKVLCTPPPKIKNGKHTFSEVEVFEYLDAVTYSCDPAPGPDPFSLIGESTIYCGDNSVWSRAAPECKVVKCRFPVVENGKQISGFGKKFYYKATVMFECDKGFYLDGSDTIVCDSNSTWDPPVPKCLKVL
Take B4: the C4b CFA: time (min.) for 50% cleavage of C4b α-chain in test [3] was 16.5 min and 12 min and 9.3 min. Also, the C3b CFA: time (min.) for 50% cleavage of C3b α′-chain in test [4] is 3.5 min and 2.1 min and 4.5 min.

B5: D2D3M3M4 (Multi-4) (protein)
chain: CEVPTRLNSASLKQPYITQNYFPVGTVVEYECRPGYRREPSLSPKLTCLQNLKWSTAVEFCKKKSCPNPGEIRNGQIDVPGGILFGATISFSCNTGYKLIGKTSSFCLISGSSVQWSDKLPICEKVLCTPPPKIKNGKHTFSEVEVFEYLDAVTYSCDPAPGPDPFSLIGESTIYCGDNSVWSRAAPECKVVKCRFPVVENGKQISGFGKKFYYKATVMFECDKGFYLDGSDTIVCDSNSTWDPPVPKCLKVL
As to B5, in test [1], the CP-DAA IC50 was 39.3 nM. In test [2], this molecule had an AP-DAA IC50 above 10 nM. This molecule registered a C4b CFA: time (min.) for 50% cleavage of C4b α-chain in test [3] of 5.5 min. The C3b CFA: time (min.) for 50% cleavage of C3b α′-chain in test [4] was 17.5 min.

B6: D2D3M3M4 (L205K) (protein)
chain: CEVPTRLNSASLKQPYITQNYFPVGTVVEYECRPGYRREPSLSPKLTCLQNLKWSTAVEFCKKKSCPNPGEIRNGQIDVPGGILFGATISFSCNTGYKLFGSTSSFCKISGSSVQWSDPLPECREIYCTPPPKIKNGKHTFSEVEVFEYLDAVTYSCDPAPGPDPFSLIGESTIYCGDNSVWSRAAPECKVVKCRFPVVENGKQISGFGKKFYYKATVMFECDKGFYLDGSDTIVCDSNSTWDPPVPKCLKVL
As for B6, the CP-DAA IC50 in test [1] turned out to be 9.2 nM. The molecule also returned an AP-DAA IC50 in test [2] above 10 nM. In addition, the C4b CFA: time (min.) for 50% cleavage of C4b α-chain in test [3] was 433 min. The molecule further gave a C3b CFA: time (min.) for 50% cleavage of C3b α′-chain in test [4] of 104 min.

B7: D2D3M3M4 (P216K) (protein)
chain: CEVPTRLNSASLKQPYITQNYFPVGTVVEYECRPGYRREPSLSPKLTCLQNLKWSTAVEFCKKKSCPNPGEIRNGQIDVPGGILFGATISFSCNTGYKLFGSTSSFCLISGSSVQWSDKLPECREIYCTPPPKIKNGKHTFSEVEVFEYLDAVTYSCDPAPGPDPFSLIGESTIYCGDNSVWSRAAPECKVVKCRFPVVENGKQISGFGKKFYYKATVMFECDKGFYLDGSDTIVCDSNSTWDPPVPKCLKVL
B7: the CP-DAA IC50 in test [1] amounted to 21 nM. The AP-DAA IC50 in test [2] came out at 3.4 nM. In addition, in test [3], the C4b CFA: time (min.) for 50% cleavage of C4b α-chain stood at 93 min. The C3b CFA: time (min.) for 50% cleavage of C3b α′-chain in test [4] worked out at 30.1 min.

B8: D2D3M3M4 (T192E) (protein)
chain: CEVPTRLNSASLKQPYITQNYFPVGTVVEYECRPGYRREPSLSPKLTCLQNLKWSTAVEFCKKKSCPNPGEIRNGQIDVPGGILFGATISFSCNEGYKLFGSTSSFCLISGSSVQWSDPLPECREIYCTPPPKIKNGKHTFSEVEVFEYLDAVTYSCDPAPGPDPFSLIGESTIYCGDNSVWSRAAPECKVVKCRFPVVENGKQISGFGKKFYYKATVMFECDKGFYLDGSDTIVCDSNSTWDPPVPKCLKVL
Take B8: the CP-DAA IC50 in test [1] is 15.3 nM. In test [2], this molecule yielded an AP-DAA IC50 of 2.3 nM. The same molecule yielded a C4b CFA: time (min.) for 50% cleavage of C4b α-chain in test [3] of 268 min. The molecule also came in with a C3b CFA: time (min.) for 50% cleavage of C3b α′-chain in test [4] of 74.3 min.

B9: D2D3M3M4 (Multi-5) or DCP (protein)
chain: CEVPTRLNSASLKQPYITQNYFPVGTVVEYECRPGYRREPSLSPKLTCLQNLKWSTAVEFCKKKSCPNPGEIRNGQIDVPGGILFGATISFSCNTGYKLIGSTSSFCLISGSSVQWSDKLPICEKVLCTPPPKIKNGKHTFSEVEVFEYLDAVTYSCDPAPGPDPFSLIGESTIYCGDNSVWSRAAPECKVVKCRFPVVENGKQISGFGKKFYYKATVMFECDKGFYLDGSDTIVCDSNSTWDPPVPKCLKVL
With B9, in test [1], the CP-DAA IC50 was 12.7 nM. The molecule also displayed an AP-DAA IC50 in test [2] of 2.4 nM. The molecule also came in with a C4b CFA: time (min.) for 50% cleavage of C4b α-chain in test [3] of 3.1 min. The C3b CFA: time (min.) for 50% cleavage of C3b α′-chain in test [4] came to 3.3 min.

B10: D2D3M3M4 (T200Y) (protein)
chain: CEVPTRLNSASLKQPYITQNYFPVGTVVEYECRPGYRREPSLSPKLTCLQNLKWSTAVEFCKKKSCPNPGEIRNGQIDVPGGILFGATISFSCNTGYKLFGSYSSFCLISGSSVQWSDPLPECREIYCTPPPKIKNGKHTFSEVEVFEYLDAVTYSCDPAPGPDPFSLIGESTIYCGDNSVWSRAAPECKVVKCRFPVVENGKQISGFGKKFYYKATVMFECDKGFYLDGSDTIVCDSNSTWDPPVPKCLKVL
Take B10: the CP-DAA IC50 in test [1] was 17.7 nM. The molecule also had an AP-DAA IC50 in test [2] of 3.7 nM. Moreover, the C4b CFA: time (min.) for 50% cleavage of C4b α-chain in test [3] was found to be 513 min. In addition, the C3b CFA: time (min.) for 50% cleavage of C3b α′-chain in test [4] stood at 103 min.

B11: D2D3M3M4 (F197I) (protein)
chain: CEVPTRLNSASLKQPYITQNYFPVGTVVEYECRPGYRREPSLSPKLTCLQNLKWSTAVEFCKKKSCPNPGEIRNGQIDVPGGILFGATISFSCNTGYKLIGSTSSFCLISGSSVQWSDPLPECREIYCTPPPKIKNGKHTFSEVEVFEYLDAVTYSCDPAPGPDPFSLIGESTIYCGDNSVWSRAAPECKVVKCRFPVVENGKQISGFGKKFYYKATVMFECDKGFYLDGSDTIVCDSNSTWDPPVPKCLKVL
In the case of B11, the CP-DAA IC50 in test [1] stood at 30.7 nM. The molecule further had an AP-DAA IC50 in test [2] of 4.4 nM. In test [3], the C4b CFA: time (min.) for 50% cleavage of C4b α-chain is 66.7 min. For the same molecule, the C3b CFA: time (min.) for 50% cleavage of C3b α′-chain in test [4] was determined as 49.8 min.

B12: D2D3M3M4 (protein)
chain: CEVPTRLNSASLKQPYITQNYFPVGTVVEYECRPGYRREPSLSPKLTCLQNLKWSTAVEFCKKKSCPNPGEIRNGQIDVPGGILFGATISFSCNTGYKLFGSTSSFCLISGSSVQWSDPLPECREIYCTPPPKIKNGKHTFSEVEVFEYLDAVTYSCDPAPGPDPFSLIGESTIYCGDNSVWSRAAPECKVVKCRFPVVENGKQISGFGKKFYYKATVMFECDKGFYLDGSDTIVCDSNSTWDPPVPKCLKVL
For B12, the CP-DAA IC50 in test [1] was 5.1 nM and 15.9 nM. Also, in test [2], the AP-DAA IC50 is 2.4 nM and 2.1 nM. In test [3], the C4b CFA: time (min.) for 50% cleavage of C4b α-chain is 429 min and 465 min. The C3b CFA: time (min.) for 50% cleavage of C3b α′-chain in test [4] is 80.7 min and 82.6 min.

B13: D2D3M3M4 (S199K) (protein)
chain: CEVPTRLNSASLKQPYITQNYFPVGTVVEYECRPGYRREPSLSPKLTCLQNLKWSTAVEFCKKKSCPNPGEIRNGQIDVPGGILFGATISFSCNTGYKLFGKTSSFCLISGSSVQWSDPLPECREIYCTPPPKIKNGKHTFSEVEVFEYLDAVTYSCDPAPGPDPFSLIGESTIYCGDNSVWSRAAPECKVVKCRFPVVENGKQISGFGKKFYYKATVMFECDKGFYLDGSDTIVCDSNSTWDPPVPKCLKVL
Take B13: in test [1], the CP-DAA IC50 amounted to 21.7 nM. The molecule further gave an AP-DAA IC50 in test [2] of 6.6 nM. In addition, the C4b CFA: time (min.) for 50% cleavage of C4b α-chain in test [3] was 181 min. This molecule also registered a C3b CFA: time (min.) for 50% cleavage of C3b α′-chain in test [4] of 18.9 min.

B14: D2D3M3M4 (K195Y) (protein)
chain: CEVPTRLNSASLKQPYITQNYFPVGTVVEYECRPGYRREPSLSPKLTCLQNLKWSTAVEFCKKKSCPNPGEIRNGQIDVPGGILFGATISFSCNTGYYLFGSTSSFCLISGSSVQWSDPLPECREIYCTPPPKIKNGKHTFSEVEVFEYLDAVTYSCDPAPGPDPFSLIGESTIYCGDNSVWSRAAPECKVVKCRFPVVENGKQISGFGKKFYYKATVMFECDKGFYLDGSDTIVCDSNSTWDPPVPKCLKVL
Consider B14, for which, in test [1], the CP-DAA IC50 was above 100 nM. This molecule gave an AP-DAA IC50 in test [2] above 10 nM. Besides, the C4b CFA: time (min.) for 50% cleavage of C4b α-chain in test [3] is above 540 min.

B15: D2M2-4 (protein)
chain: CEVPTRLNSASLKQPYITQNYFPVGTVVEYECRPGYRREPSLSPKLTCLQNLKWSTAVEFCKKKSCPYIRDPLNGQAVPANGTYEFGYQMHFICNEGYYLIGEEILYCELKGSVAIWSGKPPICEKVLCTPPPKIKNGKHTFSEVEVFEYLDAVTYSCDPAPGPDPFSLIGESTIYCGDNSVWSRAAPECKVVKCRFPVVENGKQISGFGKKFYYKATVMFECDKGFYLDGSDTIVCDSNSTWDPPVPKCLKVL
As to B15, the CP-DAA IC50 in test [1] was found to be 457 nM. The same molecule gave an AP-DAA IC50 in test [2] above 10 nM.

B16: D2M2-4 (ML) (protein)
chain: CEVPTRLNSASLKQPYITQNYFPVGTVVEYECRPGYRREPSLSPKLTCLQNLKWSTAVEFCYRETCPYIRDPLNGQAVPANGTYEFGYQMHFICNEGYYLIGEEILYCELKGSVAIWSGKPPICEKVLCTPPPKIKNGKHTFSEVEVFEYLDAVTYSCDPAPGPDPFSLIGESTIYCGDNSVWSRAAPECKVVKCRFPVVENGKQISGFGKKFYYKATVMFECDKGFYLDGSDTIVCDSNSTWDPPVPKCLKVL
Turning to B16, the CP-DAA IC50 in test [1] is above 1000 nM. In test [2], the AP-DAA IC50 is above 10 nM.
